Test results taken from paper PMC11362571, “Multistage protective anti-CelTOS monoclonal antibodies with cross-species sterile protection against malaria” (Nature Communications, 2024).
Several values for one entry are separate records, joined by “and”; a condition that tells them apart may be missing. Equal entries are not always repeated.

How the values were obtained:
[1] = target: T1, P. falciparum CelTOS (cell-traversal protein for ookinetes and sporozoites), 3D7, residues F25-D182 (Plasmodium falciparum 3D7); experiment: BLI; mAb immobilised on anti-mouse IgG Fc capture (AMC) biosensors, 25 °C; CelTOS serially diluted in HBS-EP+ buffer as analyte; OctetRed96e; global fit, 1:1 model; each biological replicate the average of three repeats; conditions: both partners purified
T1 construct: PfCelTOS, P. falciparum 3D7, PF3D7_1216600, residues F25-D182; also called PfCelTOS; source: E. coli BL21(DE3), pET28, purified (nickel resin, Superdex 200 increase)
T1 chain: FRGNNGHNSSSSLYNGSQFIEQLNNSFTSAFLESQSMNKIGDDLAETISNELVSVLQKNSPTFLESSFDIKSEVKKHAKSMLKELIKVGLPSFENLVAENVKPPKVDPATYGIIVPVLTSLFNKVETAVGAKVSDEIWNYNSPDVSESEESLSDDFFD

[2] = target: T2, P. vivax CelTOS (cell-traversal protein for ookinetes and sporozoites), Sal-1, residues L36-D196 (Plasmodium vivax Sal-1); experiment: as above; conditions: both partners purified
T2 construct: PvCelTOS, P. vivax Sal-1, PVX_123510, residues L36-D196; also called PvCelTOS; source: E. coli BL21(DE3), pET28, purified (nickel resin, Superdex 200 increase)
T2 chain: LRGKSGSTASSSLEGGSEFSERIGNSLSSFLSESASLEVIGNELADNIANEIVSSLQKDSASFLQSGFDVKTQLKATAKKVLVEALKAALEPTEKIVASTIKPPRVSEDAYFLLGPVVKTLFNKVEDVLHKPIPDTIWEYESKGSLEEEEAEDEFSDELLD

[3] = target: T3, P. vivax CelTOS (Sal-1, PVX_123510, residue L36-D196) (P. vivax, UniProt A5JZX5); experiment: BLI; mAb immobilised on anti-mouse IgG Fc capture (AMC) biosensors at 25 °C; CelTOS serially diluted in HBS-EP+ buffer; global fit, 1:1 model; conditions: both partners purified
T3 construct: Cell-traversal protein for ookinetes and sporozoites (CelTOS), P. vivax Sal-1, PVX_123510, residues L36-D196; also called PvCelTOS; cell-traversal protein for ookinetes and sporozoites; source: E. coli BL21(DE3), pET28, purified (Ni resin, Superdex 200 increase)

[4] = target: T4, P. falciparum CelTOS (3D7, PF3D7_1216600, residue F25-D182) (P. falciparum, UniProt Q8I5P1); experiment: as above; conditions: both partners purified
T4 construct: Cell-traversal protein for ookinetes and sporozoites (CelTOS), P. falciparum 3D7, PF3D7_1216600, residues F25-D182; Only S60-S116 are ordered in PDB 8UKH; also called PfCelTOS; cell-traversal protein for ookinetes and sporozoites; source: E. coli BL21(DE3), pET28, purified (Ni resin, Superdex 200 increase)

[5] = target: the molecule itself; experiment: crystal structure; PvCelTOS with 7g7 Fab at a 1:1 ratio, complex purified by SEC; crystals at 17 °C, 0.1 M sodium acetate pH 4.5, 15% PEG 4000; 3.2 Å
[6] = target: the molecule itself; experiment: crystal structure; PfCelTOS with 4h12 Fab at a ratio of 1.5:1, complex purified by SEC; crystals at 18 °C, 0.2 M lithium acetate, 21% PEG 3350; 3.5 Å

B1: anti-CelTOS monoclonal antibody 7g7 (mouse IgG1) (antibody, V domains shown)
VH: EIQLQQSGPELVKPGASVKVSCKASGYSFTDYNMYWVKQSHGKSLEWIGYIDPYNGGTRYNQKFRDKATLTVDKSSSTAFMHLNSLTSEDSAVYYCARGYYYGNPLHFDVWGAGTTVTVSS
VL: QIVLTQSPAIMSASPGEKVTMTCSASSSVSYIHWYQQKSGTSPKRWIYDTSKLASGVPARFSGSGSGTSYSLTISSMEAEDAATYYCQQWISYPATFGAGTKLELK
notes: 7g7 heavy chain variable region; mouse IgG1 heavy chain constant region (IgG1 subclass by isotyping ELISA); 7g7 light chain variable region; light chain constant region; the light chain of the Fab is in PDB 8ULF; IgG1; raised in mice immunised with PvCelTOS; also called 7g7 mAb; 7g7 IgG; source: hybridoma culture, purified (Protein A resin)
For B1, the Kd [1] was 470 nM and 480 nM and 500 nM, the koff [1] was 0.00279 s⁻¹ and 0.00293 s⁻¹ and 0.00281 s⁻¹ and 0.00284 s⁻¹ and the kon [1] was 5900 M⁻¹ s⁻¹ and 6000 M⁻¹ s⁻¹ and 5600 M⁻¹ s⁻¹ and 5800 M⁻¹ s⁻¹. For the same binder, the Kd [2] was 58.5 nM and 39.5 nM and 54.2 nM, the koff [2] was 0.00309 s⁻¹ and 0.00368 s⁻¹ and 0.00227 s⁻¹ and 0.00332 s⁻¹ and the kon [2] was 60200 M⁻¹ s⁻¹ and 62300 M⁻¹ s⁻¹ and 57000 M⁻¹ s⁻¹ and 61300 M⁻¹ s⁻¹.

B2: monoclonal antibody 7g7 (IgG) (antibody, V domains shown)
VH: EIQLQQSGPELVKPGASVKVSCKASGYSFTDYNMYWVKQSHGKSLEWIGYIDPYNGGTRYNQKFRDKATLTVDKSSSTAFMHLNSLTSEDSAVYYCARGYYYGNPLHFDVWGAGTTVTVSS
VL: QIVLTQSPAIMSASPGEKVTMTCSASSSVSYIHWYQQKSGTSPKRWIYDTSKLASGVPARFSGSGSGTSYSLTISSMEAEDAATYYCQQWISYPATFGAGTKLELK
notes: the Fab part of the heavy chain is in PDB 8ULF; mouse IgG1; the light chain is in PDB 8ULF; IgG1; raised by immunising mice with PvCelTOS; also called 7g7 mAb; source: mouse hybridoma supernatant, purified (protein A); copies: 2 + 2
B2 showed a Kd [3] of 50.7 nM and a Kd [4] of 480 nM.

B3: P. vivax CelTOS (Sal-1, PVX_123510, residue L36-D196) (natural protein, UniProt A5JZX5 36-196, looked up)
chain: LRGKSGSTASSSLEGGSEFSERIGNSLSSFLSESASLEVIGNELADNIANEIVSSLQKDSASFLQSGFDVKTQLKATAKKVLVEALKAALEPTEKIVASTIKPPRVSEDAYFLLGPVVKTLFNKVEDVLHKPIPDTIWEYESKGSLEEEEAEDEFSDELLD
notes: Cell-traversal protein for ookinetes and sporozoites (CelTOS), P. vivax Sal-1, PVX_123510, residues L36-D196; also called PvCelTOS; cell-traversal protein for ookinetes and sporozoites; source: E. coli BL21(DE3), pET28, purified (Ni resin, Superdex 200 increase)
With B3 the “stoichiometry N” value [5] was 2.

B4: P. falciparum CelTOS (3D7, PF3D7_1216600, residue F25-D182) (natural protein, UniProt Q8I5P1 25-182, looked up)
chain: FRGNNGHNSSSSLYNGSQFIEQLNNSFTSAFLESQSMNKIGDDLAETISNELVSVLQKNSPTFLESSFDIKSEVKKHAKSMLKELIKVGLPSFENLVAENVKPPKVDPATYGIIVPVLTSLFNKVETAVGAKVSDEIWNYNSPDVSESEESLSDDFFD
notes: Cell-traversal protein for ookinetes and sporozoites (CelTOS), P. falciparum 3D7, PF3D7_1216600, residues F25-D182; Only S60-S116 are ordered in PDB 8UKH; also called PfCelTOS; cell-traversal protein for ookinetes and sporozoites; source: E. coli BL21(DE3), pET28, purified (Ni resin, Superdex 200 increase)
B4 was tested, and the “stoichiometry N” value [6] was 2.

B5: anti-CelTOS monoclonal antibody 4h12 (mouse IgG1) (antibody, V domains shown)
VH: QVQLQQSGPELVKPGASVKISCKASGYALSSSWLNWVKQRPGQGLEWIGRIFPGDGDTNYNGKFKGKATLTADKSSSTAYLQLSSLTSVDSAVYFCARGGTVVFDYWGQGTTLTVSS
VL: DIVMTQSHKFMSTSVGDRVNITCKASQDVGIAVAWYQQRPGQSPKLLIYWASKRHTGVHDRFTGTGSGTDFTLTISTVQSEDLADYFCQQYSNSLTFGAGTTLELS
notes: 4h12 heavy chain variable region; mouse IgG1 heavy chain constant region (IgG1 subclass by isotyping ELISA); 4h12 light chain variable region; light chain constant region; the light chain of the Fab is in PDB 8UKH; IgG1; raised in mice immunised with PfCelTOS; also called 4h12 mAb; 4h12 IgG; source: hybridoma culture, purified (Protein A resin)
B5 was tested, and the Kd [1] was 65.9 nM and 68 nM and 62.3 nM, the koff [1] was 0.00569 s⁻¹ and 0.00609 s⁻¹ and 0.00521 s⁻¹ and 0.00566 s⁻¹ and the kon [1] was 86300 M⁻¹ s⁻¹ and 89700 M⁻¹ s⁻¹ and 84700 M⁻¹ s⁻¹ and 86900 M⁻¹ s⁻¹. For the same binder, the Kd [2] was 41600 nM and 57500 nM and 56300 nM, the koff [2] was 0.0411 s⁻¹ and 0.0511 s⁻¹ and 0.0549 s⁻¹ and 0.0491 s⁻¹ and the kon [2] was 1100 M⁻¹ s⁻¹ and 900 M⁻¹ s⁻¹ and 1000 M⁻¹ s⁻¹.

B6: monoclonal antibody 4h12 (IgG) (antibody, V domains shown)
VH: QVQLQQSGPELVKPGASVKISCKASGYALSSSWLNWVKQRPGQGLEWIGRIFPGDGDTNYNGKFKGKATLTADKSSSTAYLQLSSLTSVDSAVYFCARGGTVVFDYWGQGTTLTVSS
VL: DIVMTQSHKFMSTSVGDRVNITCKASQDVGIAVAWYQQRPGQSPKLLIYWASKRHTGVHDRFTGTGSGTDFTLTISTVQSEDLADYFCQQYSNSLTFGAGTTLELS
notes: the Fab part of the heavy chain is in PDB 8UKH; mouse IgG1; the light chain is in PDB 8UKH; IgG1; raised by immunising mice with PfCelTOS; also called 4h12 mAb; source: mouse hybridoma supernatant, purified (protein A); copies: 2 + 2
B6 showed a Kd [3] of 51800 nM and a Kd [4] of 65.4 nM.
